Source: FireProtDB (doi:10.1006/jmbi.1999.2569)

Settings: Bacillus amyloliquefaciens; pH 6.3; Thermal; DSC; MES 50 mM; whole UniProt chain shown

B1: Ribonuclease wild type, P00648 (protein)
chain: MMKMEGIALKKRLSWISVCLLVLVSAAGMLFSTAAKTETSSHKAHTEAQVINTFDGVADYLQTYHKLPDNYITKSEAQALGWVASKGNLADVAPGKSIGGDIFSNREGKLPGKSGRTWREADINYTSGFRNSDRILYSSDWLIYKTTDHYQTFTKIR
B1 gave a Tm of 54.1 °C.
